Reference: patent US20150160235A1 (Takeda / Millennium, published 2015)

Molecular target: T1, oxMIF (oxidized macrophage migration inhibitory factor) in human tissue cryosections (human, UniProt P14174 2-115)
T1 construct: mature; Native oxMIF isoform in unfixed, air-dried cryosections of patient tissue (kidney, pancreas, breast, brain, lung, colon); also called oxidized MIF
Assay: IHC, biotinylated RAM9 5 µg/ml on unfixed kidney cryosections, streptavidin-HRP/DAB
Protocol: The kidney tissue slides were prepared according to state of the art techniques known to experts, either fresh frozen or OCT embedded, sectioned at 10 μm and stored at <=−80° C. after sectioning. All following steps were done at ambient temperature. The cryo-sections were air dried for 30 min and unspecific binding was blocked with blocking buffer (20% Normal Goat Serum/2% Bovine Serum Albumin/0.2% Fish Gelatine in TBS) for 30 min. The sections were then incubated with a primary, preferably biotinylated, anti-oxMIF Antibody (biotinylated-RAM9) in primary antibody dilution buffer (2% Bovine Serum Albumin/0.2% Fish Gelatine in TBS) at a concentration of 5 μg/ml for 60 min. After washing in TBS, the specimen was fixed in 4% PBS buffered formaldehyde for 15-20 min. Excess formaldehyde was removed by washing in TBS for 10 min. The staining was done using VECTASTAIN Elite ABC Reagent (HRP conjugated Streptavidin) for 30 min. Then the sections were extensively washed again 10 min in TBS. By using ImmPACT DAB Substrate for 10 minutes the staining was visualized as a brown color, which is reflected in FIG. 1A by a dark grey. The slides were washed in TBS and the nuclei were counterstained with Haematoxylin for 1-2 min. By washing the slides in tap water the color of the counter stain changes from violet to blue. […]

T1 sequence (P14174 2-115): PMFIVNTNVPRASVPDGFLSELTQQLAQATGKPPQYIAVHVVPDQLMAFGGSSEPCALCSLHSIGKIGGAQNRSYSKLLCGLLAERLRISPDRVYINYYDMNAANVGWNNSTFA

- binding result: binds
B1: anti-oxMIF antibody RAM9 (antibody, V domains shown)
VH: EVQLLESGGGLVQPGGSLRLSCAASGFTFSIYSMNWVRQAPGKGLEWVSSIGSSGGTTYYADSVKGRFTISRDNSKNTLYLQMNSLRAEDTAVYYCAGSQWLYGMDVWGQGTTVTVSS
VL: DIQMTQSPSSLSASVGDRVTITCRSSQRIMTYLNWYQQKPGKAPKLLIFVASHSQSGVPSRFRGSGSETDFTLTISGLQPEDSATYYCQQSFWTPLTFGGGTKVEIKR
notes: also called biotinylated-RAM9
